Laboratory results published in US7241873B2, “Recombinant anti-osteopontin antibody and use thereof” (Juridical Foundation the Chemo-sero-therapeutic Research …, priority 2001, dated 2007).

Tests used:
[1] = tested on: adhesion of human fibroblast TIG-7 to CHO/OPN-a; assay: Inhibition of TIG-7 cell adhesion to OPN; type: cell-based; settings: peptide 100 μg/ml, FIG. 1A
Experimental: (§1) It was examined by the following method as to whether or not the murine monoclonal antibodies inhibited cell adhesion to OPN. First, a 96-well plate was precoated with various concentrations of the CHO/OPN-a at 4° C. overnight, which was then treated with 0.5% BSA in PBS under conditions of 37° C. for 10 minutes, so as to block non-specific adhesion. A human fibroblast TIG-7 or SW480 cell transformed with the cDNA of an integrin subunit α9 (referred to as “α9-transformed SW480 cell” hereinafter) was suspended in D-MEM containing 0.25% BSA; 200 μl of the resulting cell suspension (at a cell concentration of 5×10^4 cells/well) was injected in a 96-well plate precoated with the CHO/OPN-a or nOPN, in the presence or absence of various concentrations of the monoclonal antibodies or synthetic peptides, for incubation at 37° C. for one hour.
(§2) The culture medium was discarded from the plate, and all the wells were rinsed twice with D-MEM containing 0.25% BSA. The adherent cells were fixed and stained with 0.5% crystal violet in 20% methanol for 30 minutes.
All the wells were rinsed three times with water, and the adherent cells were then solubilized into 20% acetic acid. The resulting supernatant recovered from each well was analyzed with an immunoreader, to measure the absorbance at 590 nm to determine the relative count of the cells adhering to the well. All the assays were done in a triplicate fashion, and at least three independent experiments were performed. The values shown represent mean at three independent experiments.

[2] = tested on: adhesion of α9-transformed SW480 cell to nOPN; assay: Adhesion of α9-transformed SW480 cell to nOPN; type: cell-based, human; settings: 3 μg/ml nOPN, combination of 200 μM GRGDSP peptide and anti-α9β1 antibody Y9A2, FIG. 2A
Experimental: as §1, §2
All the wells were rinsed three times with water, and the adherent cells were then solubilized into 20% acetic acid. The resulting supernatant recovered from each well was analyzed with an immunoreader, to measure the absorbance at 590 nm to determine the relative count of the cells adhering to the well. […]

[3] = tested on: adhesion of α9-transformed SW480 cell to vitronectin; assay: Adhesion of α9-transformed SW480 cell to vitronectin; type: cell-based, human; settings: 1 μg/ml vitronectin, 200 μM peptide, FIG. 2A
[4] = tested on: adhesion of murine NIH 3T3 cell to mOPN/de-GST; assay: Inhibition of NIH 3T3 cell adhesion to murine OPN; type: cell-based, mouse; settings: peptide 100 μg/mL, FIG. 15
Description: It was examined by the method described in the reference (S. Kon et al., (2002): J. Cell. Biochem., 84(2), 420–432) as to whether or not the M5 antibody might inhibit cell adhesion to OPN. As the OPN, the full-length murine OPN was used, from which the GST segment had preliminarily been removed with PreScission protease (Amersham Pharmacia Biotech, Tokyo, Japan) (referred to as “mOPN/de-GST” hereinafter) was used. As the cell, murine NIH 3T3 cell was used.

[5] = tested on: mouse collagen arthritis model; assay: Mouse collagen arthritis model (arthritogenic antibody cocktail/LPS); type: in vivo; settings: text summary of Tables 6 to 9
Experimental: For arthritis induction, an arthritogenic antibody cocktail (under the trade name of a cocktail for arthritis, Arthrogen-CIA® mAb, Arthritogenic mAb cocktail; manufactured by Iwai Chemical Pharmaceutical Co., Ltd.) recognizing four epitopes specific to collagen was used. To a mouse was intravenously administered the arthritogenic cocktail; 3 days later, LPS (100 μg) was intraperitoneally administered to thereby elicit arthritis. Arthritis was observed on day 3 after LPS dosing, which reached maximum on day 6.
Immediately before LPS dosing and 3 days later, the M5 antibody was intravenously administered at a dose of 40 μg, 150 μg or 400 μg. As the control group, a rabbit IgG-dosed group (at a dose of 400 μg) was arranged. Additionally, the anti-mouse TNF-α antibody was intravenously administered at a dose of 200 μg/mouse immediately before LPS administration and 3 days later. As the control group, a rat IgG-dosed group (at a dose of 200 μg) was arranged. Further, MTX was orally given (at a dose of 3.2 mg/kg) once daily on the very day of LPS dosing and thereafter. Then, MTX dissolved in 5 ml of 0.5% methyl cellulose solution was used. For the control group, 5 ml of 0.5% methyl cellulose solution was arranged.
Concerning four items, namely arthritis score, leg edema, body weight change and feed intake, assessment was done per each group of five animals.

[6] = tested on: human peripheral monocyte migration toward thrombin-cleaved OPN; assay: Migration of TNF-α-activated human peripheral monocyte toward thrombin-cleaved OPN (chimera 2K1); type: cell-based; settings: for Mean migrating cell counts per 1 mm^3 (monocyte): thrombin-cleaved OPN 10 μg/mL
Experimental: First, the blood drawn out from a normal subject with heparin was diluted 2-fold with an RPMI 1640 culture medium. The diluted blood was overlaid on the Ficoll-Paque (Pharmacia), which was then centrifuged at 400×g at ambient temperature for 30 minutes. A white layer observed in the interface between the blood plasma and Ficoll-Paque was recovered and used as a monocyte. The monocyte thus obtained was overnight cultured with human TNF-α (20 ng/mL). The resulting activated monocyte was used for a migration experiment.
The migration experiment was done, using a 48-well microchemotaxis chamber (Neuro Probe Inc.). Human OPN reacted with bovine thrombin (Sigma) at 37° C. for 2 hours, for cleavage. After various concentrations of the 2K1 chimera antibody were added to the resulting human […] and left to stand at 37° C. for 15 minutes, the resulting mixture was added to the lower chamber (the final human OPN concentration was 10 μg/mL). Placing a polycarbonate filter (pore size of 5 μm) thereon, 50 μl of a cell suspension (2×10^6 cells/mL) was added to the upper chamber.
After culturing in the presence of 5% CO2 at 37° C. for 2 hours, the polycarbonate filter was removed, while […] with Diff-Quick (Baxter). The cells on the surface of the […] filter were counted at a magnification×40. The results are shown as mean cell count (cells/mm^3)±SD in 6 wells.

[7] = target: partial peptide GRGDSVVYGLR of the human osteopontin (Homo sapiens, UniProt P10451); assay: KD assay on BIACORE-2000; type: binding; settings: compared with murine 2K1 antibody
Experimental: The KD value of the chimera 2K1 antibody was assayed in the following manner. First, a partial peptide GRGDSVVYGLR (residues 7–17 of SEQ ID NO: 1) of the human osteopontin was biotinylated with a biotinylation kit (Dojindo Corporate). A sensor chip SA was set on BIACORE-2000, to bind 23 RU of a ligand (Bin-GRGDSVVYGLR)(residues 7–17 of SEQ ID NO: 1). […] The data of these sensor grams were analyzed by global fitting at 1:1 (Langmuir) binding by a BIACORE analysis software BIA Evaluation Version 3.0. FIG. 6a is a sensor gram at various concentrations of the murine 2K1 antibody. FIG. 6b is a sensor gram at various concentrations of the chimera 2K1 antibody.

[8] = target: BSA-crosslinked osteopontin peptide (BSA-CVDTYDGRGDSVVYGLRS) (Homo sapiens, UniProt P10451); assay: ELISA binding to osteopontin peptide
Description: Based on the concentrations of the humanized 2K1 antibody and the chimera 2K1 antibody as determined in Example 13, the binding activities of the humanized 2K1 antibody and the chimera 2K1 antibody with osteopontin peptide (CVDTYDGRGDSVVYGLRS) (SEQ ID NO: 1) were compared with reference to the ELISA of Kon et al. (Journal of Cellular […]: 420–432 (2002)).
Dilution series of the humanized 2K1 antibody and the chimera 2K1 antibody reacted on a microtiter plate with BSA-crosslinked osteopontin peptide (BSA-CVDTYDGRGDSVVYGLRS)(SEQ ID NO: 1) immobilized thereon. Then, the antibodies bound to BSA-CVDTYDGRGDSVVYGLRS (SEQ ID NO: 1) reacted with protein A-HRP, and finally with TMB (Dojindo Corporate), to measure the absorbance at a wavelength of 450 nm.
Additionally, reaction on a plate with only BSA immobilized thereon as a negative control was also measured in the same manner.
As a negative control, additionally, the binding activity of the chimera 2K1 antibody to BSA (open circle) and the binding activity of the humanized 2K1 antibody to BSA (open square) are also shown.

## GRGDSP [reference compound]
[1]
  inhibition of TIG-7 adhesion to OPN: apparently inhibited
[2]
  inhibition of adhesion of α9-transformed SW480 cell to nOPN: inhibited
[3]
  inhibition of adhesion between vitronectin and α9-transformed SW480 cell: inhibited
[4]
  inhibition of NIH 3T3 adhesion to mOPN/de-GST: apparently inhibited

## CN(Cc1cnc2nc(N)nc(N)c2n1)c1ccc(C(=O)N[C@@H](CCC(=O)O)C(=O)O)cc1 [MTX]
[5]
  effect on arthritis score, onset of arthritis and leg edema (therapeutic effect): almost no pharmaceutical efficacy

B1: chimera 2K1 antibody: VH and VL of murine 2K1 antibody (SEQ ID NO: 19, 20) conjugated to human Igγ1 and human Igκ (antibody, V domains shown)
VH: QVQLQQSGAELVRPGASVKLSCKALGYTFTDYEMHWVKQTPVHGLEWIGAIHPGRGGTAYNQKFKGKATLTADKSSSTAYMELSSLTSEDSAVYYCTRITGYFDVWGAGTTVTVSS
VL: DVLMTQTPLSLPVSLGDQASISCRSSQSIVHSNGNTYLEWYLQKPGQSPKLLIYKVSNRFSGVPDRFSGSGSGTDFTLKISRVEAEDLGVYYCFQGSHVPLTFGAGTKLELKR
modifications: human IgG1 and kappa constant regions; Mouse
[6]; summary of Table 3
  inhibition of migration of TNF-α-activated human peripheral neutrophil and monocyte toward thrombin-cleavage-type OPN: inhibited
[6]; antibody 12.5 μ/mL
  Mean migrating cell counts per 1 mm^3 (monocyte): 1010.0 ± 59.1 counts per 1 mm^3
[6]; antibody 25 μ/mL
  Mean migrating cell counts per 1 mm^3 (monocyte): 1153.3 ± 96.2 counts per 1 mm^3
[6]; antibody 50 μ/mL
  Mean migrating cell counts per 1 mm^3 (monocyte): 895.0 ± 78.0 counts per 1 mm^3
[6]; antibody 100 μ/mL
  Mean migrating cell counts per 1 mm^3 (monocyte): 821.7 ± 50.2 counts per 1 mm^3
[6]; antibody 250 μ/mL
  Mean migrating cell counts per 1 mm^3 (monocyte): 865.0 ± 64.9 counts per 1 mm^3
[6]; antibody 500 μ/mL
  Mean migrating cell counts per 1 mm^3 (monocyte): 830.0 ± 44.1 counts per 1 mm^3
[7]
  reduction of the affinity due to the chimera preparation: No reduction
[8]; ELISA, absorbance 450 nm, FIG. 13
  binding activity to BSA-CVDTYDGRGDSVVYGLRS: had binding activities
[8]; ELISA, plate with only BSA immobilized
  binding activity to BSA (negative control plate): not to BSA
[8]; humanized versus chimera 2K1 antibody
  comparison of binding activities of both antibodies to BSA-CVDTYDGRGDSVVYGLRS: at the same level
